Assays:
Assay in all cases: cell-based or functional assay
[1] = target: HIV-1 APV6 Env (pseudovirus, clade B) (HIV-1)
[2] = target: HIV-1 Env of isolate 6535.3 (HIV-1)
[3] = target: HIV-1 Env of isolate 93TH305, clade B, on pseudovirus (HIV-1)
[4] = target: HIV-1 Env of isolate APV_6, clade B, on pseudovirus (HIV-1)
[5] = target: HIV-1 Env of isolate MGRM-D-002 (clade D pseudovirus) (HIV-1)
[6] = target: HIV-1 Env of isolate MGRM-D-005 (clade D pseudovirus) (HIV-1)
[7] = target: HIV-1 Env of isolate MGRM-D-011 (clade D pseudovirus) (HIV-1)
[8] = target: HIV-1 Env of isolate MGRM-G-006 (HIV-1)
[9] = target: HIV-1 Env of isolate MGRM-G-009 (HIV-1)
[10] = target: HIV-1 Env of isolate MGRM-G-019 (HIV-1)
[11] = target: HIV-1 Env of pseudovirus CMU02 (clade CRF01_AE) (HIV-1)
[12] = target: HIV-1 Env of pseudovirus MGRM-AG-002 (clade CRF_AG) (HIV-1)
[13] = target: HIV-1 Env of pseudovirus MGRM-Chronic-B-024 (HIV-1)
[14] = target: HIV-1 Env of pseudovirus MGRM-F1-010 (HIV-1)
[15] = target: HIV-1 Env of pseudovirus MGRM-F1-012 (HIV-1)
[16] = target: HIV-1 Env of pseudovirus MGRM-G-001 (clade G) (HIV-1)
[17] = target: HIV-1 Env of pseudovirus MGRM-G-015 (HIV-1, clade G isolate MGRM-G-015)
[18] = target: HIV-1 Env of pseudovirus MGRM-G-027 (HIV-1, clade G isolate MGRM-G-027)
[19] = target: HIV-1 IAVI-C18 envelope glycoprotein (Env) on pseudovirus (HIV-1)
[20] = target: HIV-1 envelope glycoprotein (Env) of isolate 92RW008, clade A (HIV-1)
[21] = target: HIV-1 Env of isolate MGRM-C-028 (HIV-1)
[22] = target: HIV-1 Env of isolate MGRM-Chronic-B-003 (subtype B pseudovirus) (HIV-1)
[23] = target: HIV-1 93IN905 envelope glycoprotein (Env) on pseudovirus (HIV-1)
[24] = target: HIV-1 93UG077 envelope glycoprotein (Env) on pseudovirus (HIV-1)
[25] = target: HIV-1 MGRM-AG-005 Env (pseudovirus) (HIV-1)
[26] = target: HIV-1 Env of isolate MGRM-AE-003 (subtype AE) (HIV-1)
[27] = target: HIV-1 Env of isolate 92RW008 (HIV-1)
[28] = target: HIV-1 Env of isolate 92UG114 (HIV-1)
[29] = target: HIV-1 Env of isolate 93IN905 (subtype C) (HIV-1)
[30] = target: HIV-1 Env of isolate 98IN022 (subtype C) (HIV-1)
[31] = target: HIV-1 Env of isolate MG RM-D-020 (HIV-1)
[32] = target: HIV-1 Env of isolate MG RM-D-022 (HIV-1)
[33] = target: HIV-1 Env of isolate MGRM-AG-003 (subtype AG) (HIV-1)
[34] = target: HIV-1 Env of isolate MGRM-AG-006 (subtype AG) (HIV-1)
[35] = target: HIV-1 Env of isolate MGRM-Chronic-B-017 (subtype B) (HIV-1)
[36] = target: HIV-1 envelope glycoprotein (Env) of isolate MGRM-C-015 (HIV-1)
[37] = target: HIV-1 envelope glycoprotein (Env) of isolate MGRM-C-017 (HIV-1)
[38] = target: HIV-1 envelope glycoprotein (Env) of isolate MGRM-C-025 (HIV-1)
[39] = target: HIV-1 envelope glycoprotein (Env) of isolate MGRM-C-027 (HIV-1)

4970_K22 (PGT-144) (antibody), sequence (VH): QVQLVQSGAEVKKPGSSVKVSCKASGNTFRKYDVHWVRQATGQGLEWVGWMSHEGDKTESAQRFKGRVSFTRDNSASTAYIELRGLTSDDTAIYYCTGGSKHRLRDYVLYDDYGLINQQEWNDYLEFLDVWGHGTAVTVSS
4970_K22 (PGT-144) (antibody), sequence (VL): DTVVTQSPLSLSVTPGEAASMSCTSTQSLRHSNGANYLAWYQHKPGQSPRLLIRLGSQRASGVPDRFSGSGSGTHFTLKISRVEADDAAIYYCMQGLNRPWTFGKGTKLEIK
4995_E20 (PGT-142) (antibody), sequence (VH): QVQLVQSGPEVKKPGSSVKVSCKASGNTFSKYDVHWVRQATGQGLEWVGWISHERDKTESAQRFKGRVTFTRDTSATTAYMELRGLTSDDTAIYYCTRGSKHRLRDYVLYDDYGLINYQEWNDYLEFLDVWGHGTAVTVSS
4995_E20 (PGT-142) (antibody), sequence (VL): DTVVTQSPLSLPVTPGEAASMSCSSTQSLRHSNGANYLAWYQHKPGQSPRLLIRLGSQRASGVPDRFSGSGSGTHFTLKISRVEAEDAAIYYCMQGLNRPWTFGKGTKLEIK
4993_K13 (PGT-141) (antibody), sequence (VH): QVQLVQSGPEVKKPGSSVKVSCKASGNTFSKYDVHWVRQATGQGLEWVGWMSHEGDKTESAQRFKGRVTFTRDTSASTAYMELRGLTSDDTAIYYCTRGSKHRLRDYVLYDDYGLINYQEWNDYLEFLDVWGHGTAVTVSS
4980_N08 (PGT-143) (antibody), sequence (VH): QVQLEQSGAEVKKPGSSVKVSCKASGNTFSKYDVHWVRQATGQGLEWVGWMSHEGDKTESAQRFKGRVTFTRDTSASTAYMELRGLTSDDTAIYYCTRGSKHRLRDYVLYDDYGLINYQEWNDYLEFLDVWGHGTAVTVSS
4980_N08 (PGT-143) (antibody), sequence (VL): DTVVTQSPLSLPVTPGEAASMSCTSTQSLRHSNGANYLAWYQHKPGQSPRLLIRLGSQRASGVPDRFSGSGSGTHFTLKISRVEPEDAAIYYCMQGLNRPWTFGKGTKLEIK

Which IC50 neutralization [1] does the source give for 1496_C09 (PG9) (TCN-109) (antibody) here?
The IC50 neutralization was 0.214 µg/mL.

And the IC50 (µg/mL), pseudovirus neutralization [2]?
Its IC50 (µg/mL), pseudovirus neutralization is 1.05 µg/mL.

What about the IC50 (µg/ml), pseudovirus neutralization [3] of the same substance?
Its IC50 (µg/ml), pseudovirus neutralization is 2.08 µg/mL.

And the IC50 (µg/ml), pseudovirus neutralization [4]?
Its IC50 (µg/ml), pseudovirus neutralization is 0.12 µg/mL.

And the IC50 (µg/ml), pseudovirus neutralization [5]?
The IC50 (µg/ml), pseudovirus neutralization was 0.027 µg/mL.

What about the IC50 (µg/ml), pseudovirus neutralization [6] of the same substance?
Its IC50 (µg/ml), pseudovirus neutralization is 0.59 µg/mL.

What about the IC50 (µg/ml), pseudovirus neutralization [7] of the same substance?
Its IC50 (µg/ml), pseudovirus neutralization is 0.06 µg/mL.

What about the IC50 (µg/mL), pseudovirus neutralization [8] of the same substance?
The IC50 (µg/mL), pseudovirus neutralization was 1.98 µg/mL.

What about the IC50 (µg/mL), pseudovirus neutralization [9] of the same substance?
The IC50 (µg/mL), pseudovirus neutralization was 10.7 µg/mL.

And the IC50 (µg/mL), pseudovirus neutralization [10]?
The IC50 (µg/mL), pseudovirus neutralization was 14.6 µg/mL.

What about the IC50 [11] of the same substance?
Its IC50 is 7.69 µg/mL.

And the IC50 [12]?
Its IC50 is 0.04 µg/mL.

And the IC50 (µg/ml), pseudovirus neutralization [13]?
The IC50 (µg/ml), pseudovirus neutralization was 0.18 µg/mL.

And the IC50 (µg/ml), pseudovirus neutralization [14]?
Its IC50 (µg/ml), pseudovirus neutralization is 0.03 µg/mL.

And the IC50 (µg/ml), pseudovirus neutralization [15]?
Its IC50 (µg/ml), pseudovirus neutralization is 0.01 µg/mL.

What about the IC50 [16] of the same substance?
The IC50 was 0.16 µg/mL.

And the IC50 (µg/ml), pseudovirus neutralization [17]?
Its IC50 (µg/ml), pseudovirus neutralization is 1.51 µg/mL.

And the IC50 (µg/ml), pseudovirus neutralization [18]?
The IC50 (µg/ml), pseudovirus neutralization was 0.01 µg/mL.

And the IC50, pseudovirus neutralization [19]?
The IC50, pseudovirus neutralization was 0.0535 µg/mL.

What about the IC50 (µg/ml), pseudovirus neutralization [20] of the same substance?
Its IC50 (µg/ml), pseudovirus neutralization is 0.01 µg/mL.

How did the neutralization IC50 [21] turn out when 4838_L06 (PGT-121) (antibody) was run?
The neutralization IC50 was 0.472 µg/mL.

And the IC50 (µg/mL), pseudovirus neutralization [22]?
Its IC50 (µg/mL), pseudovirus neutralization is 0.011 µg/mL.

Which results are given for 4858_P08 (PGT-123) (antibody)?
neutralization IC50 [23]: 0.0071 µg/mL; neutralization IC80 [23]: 0.0281 µg/mL; neutralization IC90 [23]: 0.0625 µg/mL; neutralization IC95 [23]: 0.131 µg/mL; neutralization IC50 [24]: 0.0303 µg/mL; neutralization IC80 [24]: 0.143 µg/mL; neutralization IC90 [24]: 0.35 µg/mL; neutralization IC95 [24]: 0.78 µg/mL; IC50 neutralization [1]: 0.0328 µg/mL; neutralization IC50 [21]: 0.402 µg/mL; IC50 (µg/mL), pseudovirus neutralization [22]: 0.008 µg/mL; neutralization IC50 (pseudovirus) [25]: 0.104 µg/mL

What does the source list for 4877_D15 (PGT-122) (antibody)?
IC50 neutralization [1]: 0.0851 µg/mL; neutralization IC50 [21]: 2.22 µg/mL; IC50 (µg/mL), pseudovirus neutralization [22]: 0.008 µg/mL; neutralization IC50 (pseudovirus) [25]: > 10 µg/mL

Which IC50 (µg/mL), pseudovirus neutralization [26] does the source give for 4970_K22 (PGT-144) (antibody) here?
The IC50 (µg/mL), pseudovirus neutralization was greater than 50 µg/mL.

What about the IC50 (µg/mL), pseudovirus neutralization [8] of the same substance?
Its IC50 (µg/mL), pseudovirus neutralization is 3.84 µg/mL.

And the IC50 (µg/mL), pseudovirus neutralization [9]?
The IC50 (µg/mL), pseudovirus neutralization was greater than 50 µg/mL.

What about the IC50 (µg/mL), pseudovirus neutralization [10] of the same substance?
The IC50 (µg/mL), pseudovirus neutralization was greater than 50 µg/mL.

What about the IC50 (neutralizing activity, pseudovirus) [25] of the same substance?
The IC50 (neutralizing activity, pseudovirus) was greater than 10 µg/mL.

What does the source list for 4980_N08 (PGT-143) (antibody)?
IC50 (µg/mL), pseudovirus neutralization [26]: > 50 µg/mL; IC50 (µg/mL), pseudovirus neutralization [8]: 0.031 µg/mL; IC50 (µg/mL), pseudovirus neutralization [9]: 2.97 µg/mL; IC50 (µg/mL), pseudovirus neutralization [10]: 4.77 µg/mL; IC50 (neutralizing activity, pseudovirus) [25]: 0.244 µg/mL

What does the source list for 4993_K13 (PGT-141) (antibody)?
IC50 (µg/mL), pseudovirus neutralization [26]: > 50 µg/mL; IC50 (µg/mL), pseudovirus neutralization [8]: 0.043 µg/mL; IC50 (µg/mL), pseudovirus neutralization [9]: 1.89 µg/mL; IC50 (µg/mL), pseudovirus neutralization [10]: 20.3 µg/mL; IC50 (neutralizing activity, pseudovirus) [25]: 0.392 µg/mL

Which IC50 (µg/mL), pseudovirus neutralization [26] does the source give for 4995_E20 (PGT-142) (antibody) here?
The IC50 (µg/mL), pseudovirus neutralization was greater than 50 µg/mL.

And the IC50 (µg/mL), pseudovirus neutralization [8]?
Its IC50 (µg/mL), pseudovirus neutralization is 0.019 µg/mL.

What about the IC50 (µg/mL), pseudovirus neutralization [9] of the same substance?
The IC50 (µg/mL), pseudovirus neutralization was 2.81 µg/mL.

And the IC50 (µg/mL), pseudovirus neutralization [10]?
The IC50 (µg/mL), pseudovirus neutralization was 5.95 µg/mL.

What about the IC50 (neutralizing activity, pseudovirus) [25] of the same substance?
Its IC50 (neutralizing activity, pseudovirus) is 0.22 µg/mL.

For 5114_A19 (PGT-128) (antibody), which neutralization IC50 [2] is on record?
The neutralization IC50 was 0.011 µg/mL.

What about the IC50 [27] of the same substance?
Its IC50 is 0.003 µg/mL.

And the IC50 (µg/mL), pseudovirus neutralization [28]?
Its IC50 (µg/mL), pseudovirus neutralization is 0.083 µg/mL.

And the IC50 neutralization [29]?
Its IC50 neutralization is 0.009 µg/mL.

And the IC50 neutralization [30]?
The IC50 neutralization was 0.014 µg/mL.

And the IC50 (µg/mL), pseudovirus neutralization [31]?
Its IC50 (µg/mL), pseudovirus neutralization is 0.011 µg/mL.

And the IC50 (µg/mL), pseudovirus neutralization [32]?
Its IC50 (µg/mL), pseudovirus neutralization is greater than 50 µg/mL.

And the IC50 (µg/mL), pseudovirus neutralization [26]?
Its IC50 (µg/mL), pseudovirus neutralization is 0.18 µg/mL.

And the IC50 (µg/mL), pseudovirus neutralization [33]?
The IC50 (µg/mL), pseudovirus neutralization was 34.8 µg/mL.

What about the IC50 (µg/mL), pseudovirus neutralization [34] of the same substance?
Its IC50 (µg/mL), pseudovirus neutralization is 0.009 µg/mL.

And the IC50 neutralization [35]?
Its IC50 neutralization is greater than 50 µg/mL.

What about the IC50 (µg/mL), pseudovirus neutralization [36] of the same substance?
Its IC50 (µg/mL), pseudovirus neutralization is 0.196 µg/mL.

What about the IC50 (µg/mL), pseudovirus neutralization [37] of the same substance?
Its IC50 (µg/mL), pseudovirus neutralization is 1.06 µg/mL.

What about the IC50 (µg/mL), pseudovirus neutralization [38] of the same substance?
The IC50 (µg/mL), pseudovirus neutralization was 10.5 µg/mL.

What about the IC50 (µg/mL), pseudovirus neutralization [39] of the same substance?
Its IC50 (µg/mL), pseudovirus neutralization is 0.081 µg/mL.

Source: patent US20250320281A1
